Experiment: yeast display, Sf9 membrane polyspecificity reagent, FACS + sequencing; frameworks hold sequencing errors
Procedure, shortened: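 Synthetic nanobody libraries on Saccharomyces cerevisiae BJ5465 were galactose-induced for 36–48 hours, stained 1 hour at 4 °C with 10% biotinylated, detergent-solubilized Sf9 membrane reagent and enriched on streptavidin microbeads. FACS then separated cells into low and high (top ~1%) gates by anti-HA (expression) and streptavidin (reagent binding) fluorescence. Genes were colony-PCR amplified, MiSeq 2 × 250 sequenced and CDR-length filtered. A clone's polyreactivity label is that of its gate of origin.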

Row | Sequence | polyreactivity (PSR sort gate)
1 | QVQLVESGGGLVQAGGSLRLSCAASGSIFRVYAMGWYRHAPGKERELVATITWNGGSTYYADSVKGRFTISRDNAKNTVYLQMNSLKPEDTAVYYCAAGRDTWPSTYYYWGQGSQVTVSS | low polyreactivity
2 | QVQLVESGGGLVQAGGSLRLSCAASGSIFDVNAMGWYRQAPGKERELVAAISQRGTRTYYADSVKGRFTISRENAKNTVYLQMNSLKPEDTAVYYCNRGGWRQYDSWGQGTQVTVSS | high polyreactivity
3 | QVQLVESGGGLVQAGGSLRLSCAASGNTFDIYTMGWYRPAPGKERELVATISSGGRTNYADSVKGRFTISRDNAKNTVYLQMNSLNPEDTAVYYCAKNLRYVWWYDHFRPYGYWGQGTQVTVSS | high polyreactivity
4 | QVQLVESGGGLVQAGGSLRLSCAASGSTLSQNAMGWYRQAPGKEREFVADISGAGDSTYYADSVKGRFTISRDNAKNTVYLQMISLKPDDTAVYYCATPSPHVGLKWEYDYWGQGTQVTVSS | low polyreactivity
5 | QVQLVESGGGLVQAGGSLRLSCAASGNTFKYYVMGWYRQAPGKERELVAAITRGGSTYYADSVKGRFTISRDNAKNTVYLQMNSLKPEDTAVYYCATDVKIPNFDYWGQGTQVTVSS | high polyreactivity
6 | QVQVVESGGGLVQAGGSLRLSCASSGRTFGIYAMGWYRPAPGKESEWVASISWSGGRTYYADSVKGRFTISRDNAKNTVYLVMISLKPEDTAVYFCAARWYYVTPLRRYGYWGQGTQVTVSS | high polyreactivity
7 | QVQLVESGGGLVQAGGSLRLSCAASGRIIGWYAMGRYRQAPGKERELVAAISQDATRTYYADSVKGRFTISRDNAKHTVYLQMNRLKPEDTAVYYCNVVYRYAGWSYDSWGQGTQVTVSS | high polyreactivity
8 | QVQVEDTGGGLVQEGGSHRLSCAASGRTFYYYTMGRYRQPPVKEREFVAAITISGARTYYADSVKGRFTISRDNAKNTVYLQMNSLKPEDTPVYYCAARRRYRSRVTTVGYNYWGQGTQVTVSS | high polyreactivity
9 | QVQLVESGGGLVQAGGSLRLSCAASGIIFTWYAMGWYRQAPGKERELVAAISGSGDITYYADSVKGRFTSSRDNAKNTVYLQMNSLKPEDTAVYYCAADPWTYWEDYDYWGQGTQVTVSS | low polyreactivity
10 | QVQLVESGRGLVQAGGSLRLISAASGSIFVHNTMGWYSQAPGKDRELVAAITYSGGSTNYADSVKGRFTISRDNAKNTVYLQMNSLKPEDTAVYYCATRAISQFHSLGYYYWGQGTEVTVSS | low polyreactivity
11 | QVQLQESGGGLVQAGGSLRLSCAASGTITVLYKMGWFRQAPGKEREFVASINYGTSTYYADSVKGRFTVSRDSAKNSVYLQMNSLKPEDTAVYYCAAAYRWQDVYRYWGQGTQVTVSS | low polyreactivity
12 | QVQLVESGGGLVQAGGSLRLTCAASGSTFRGNTMGWSRQAPGKERELVAAISWDGGTTYYADSVKGRFTISRDNAKNTVYLQMNCLKPEDTAVYYCAADWTGQEYEYWGQGTQVTVSS | low polyreactivity
13 | QVQLVESGGGLVQAGGSLRLSCAASGSIFSDYVMGWSRQAPGKERELVATISRGGGSTFYADSVKGRFTISRDTAKNTVYLQMNSLKPEDTAVYYCAAPPGPSGAKYDYWGQGTQVTVSS | low polyreactivity
14 | QVQLVESGGGLVQAGGSLRLSCAASGRIFAENAMGWYRQAPGKERELVAAITDGGGSTYYADSVKGRFTISRDNAKNTVYLQMNSLKPEDTAVYYCNAYRYHLGVDFDYWGQGTQVTVSS | low polyreactivity
15 | QVQLVESGGGLVQAGGSLRLSCAASGRIFGSYAMGWYRQAPGKERELVAAISWSGGRTYYADSVKGRFTISRDNAKNTVYLQMNSLKPEDTAVYYCNALVFGRYRDMDYWGQGTQVTVSS | high polyreactivity
16 | QVQLVESGGGLVQAGGSHGLSCAASGRTSEKNPMGWYRQAPGIERELVAGISWRGGSTYYADSVKGRFTISRDNAKNTVYLQMNSLKPEDTAFYYCARSGAFSGLDDSWGQGTQVTVSS | low polyreactivity
17 | QVQVVESGGGLVQAGGSLRLSCAASGWYNAMGWYRQAPGKERELVAAISWDGDSTYYADSVKGRFTISRENAKNTVYLQMNSLKPEDTAVYYCAATQSTGRGRYYYWGKGTQVTVSS | high polyreactivity
18 | QVQLVESGGGLVQAGGSLRLSCAASGITFTRNAMGWYRQAPGKERELVAVITSSGRTKYADSVKGRFTISRDNAKNTVYLQMNSLKPEDTAVYYCAKVLFGTVPYGYWGHGTQVTVSS | high polyreactivity
19 | QVQLVESGGGLVQAGGSLRLSCAASGFTFIYYAMGWYRQAPGKERELVAAISKRGGSTYYADSVKGRFTISRDTAKNTVYLQMYSLKPEDTAVYYCAPAFGQRRYDYWGQGTQVTVSS | high polyreactivity
20 | QVQLVESGGGLVQAGGSLRLSCAASGFTFYLYGMGWYRPAPGKERELVAGIDSDGRTNYADSVKGRFTISRDNAMNTVYLQMNSLKPEDTAVYYCAVEWAGGYDYYYWGQGSQVTVSS | high polyreactivity
21 | QVQLVESGGGLVQAGGSLRLSCAASGSIIAGYTMGWYRQAPGKERELVAGIRRGGSTNYADSVKGRFTISRDNAKNTVYLQMNSLKPEDTAVYYCAAYYRLDYDYWGQGTQVTVSS | high polyreactivity
22 | QVQLVESGGGLVQAGGSLRLSCAASGRTFGYYTMGWYRQSPGKERELVATISSDGTTNYADSVKGRFTISRDNAKNTVYLQMNSLKPEDTAVYYCNADFRLQYYYRIYDYWGQGTQVTVSS | low polyreactivity

Row | Sequence | polyreactivity (PSR sort gate)
23 | QVQLVESGGGLVQAGGSLRLSCAASGSTFFYYAMGWYRQAPGKERELVARISGGGSTNYADSVKGRFTISRDNAKNTVYLQMNSLKPEDTAVYYCAADRYHYYRYSYGRYGYWGQGTQVTVSS | high polyreactivity
24 | QVQLVESGGGLVQAGRTLRLSCAATGFIIVHNAMGWYRQPPGKERELVAAITSRGRTYYADSVKGRFTISRDHAKNTVYLQMNSLKPEDTAVYYCNPYWRGDYRYDSWGQGTQVTVSS | high polyreactivity
25 | QVQLVESGGGLVQAGGSLRLSCAASGSIFLYNAMGWYRQAPGKERELVAAISKSGGSTYYADSVKGRFTISRDNAKNTVYLQMNSLIPEDTAVYYCAAGYCRRIRYGSEYDYWGQGTQVTVSS | low polyreactivity
26 | QVQLVESGGGLVQAGGSLRLSCAASGRTFRLYAMGWSRPAPGKERELVAAISSGGSTYYADSVKGRFTISRDNAKNTVYLQMNSLKPEDTAVYYCFAWVYQFGYWGQGTQVTVSS | low polyreactivity
27 | QVHLVESGGGLVQAGGSLRLSCAASGSILVWYAMGWYRHAPGKERELVAAISQSGGRTYYADSVKGRFTISRDNAKNNVYLQMNSLKPEDTAVYYGAAFYTSYWGYDYDYWGQGTQVTVSS | low polyreactivity
28 | QVQLVESGGGLVQAGGSLRLSCAASGFIFDRYAMGWYRQAPGKERELVAAIDTASSTNYADSVKGRFTISRDNAKNTVDLQMNSLKPEDTAVYYCNASGYYYVIYWKVSNYNYWGQGTQVTVSS | low polyreactivity
29 | QVQLVESGGGLLQAGGSLRLSCAASGFTIDRYAMGWYRQAPGKERELVAAISWGGGSTYYAVSVKGRFTISRDNAKNTVYLQMNSLKPEDTAVYYCAASRGFYHPKYESWGQGTQVTVSS | high polyreactivity
30 | QEQLEESGGGLVQAGGRLRLSCAASGSTFGINARGWYRQAPGKEREVVASITRRGGSTYYADSVKGRFTISRDNAKNTVYLQMNSLKPEDTAVYYCNKTYRYGTPLYYYWGQGTQVTVSS | high polyreactivity
31 | QVQIVESGGGLVQAGGSLSLSCAASGRTISWYTMGWYRQAPGKERELVAGISSSGGSTYYADSVKGRFTISRDNAKNTVYLQLNSLKPEDTADYFCAAGDFRYVDRYGDMEYWGQGTQVTVSS | low polyreactivity
32 | QVQLVESGGGLVQAGGSLRLSCAASGRTFPYNDMGWYRQAPGKERQLVAGISLSGGSTFYADSVKGRFTISRDNAKKTVYLQRNSLKAEDTAVYYCNAPGGRYVWTDDYDYWGQGTQVTVSS | high polyreactivity
33 | QVQLVESGGGLVQAGGSLRLSCAASGSTRYYAMGWYRQAPGKERELVATISSRSRTYYADSVKGRFTISRDNAKNTVYLQMNSLKPDDPAVYYCAARRRRFYYQYYRYDYWGQGTQVTVSS | high polyreactivity
34 | QVQLVESGGGLVQAGGSLRLSCAASGITFGGNAMGWYRQAPGKERELVAAISSSGGSTYYADSVKGRFTISRDNAKNTVYLQMNSLKPEDTAVYYCAARNRYPLRFYYWGQGTQVTVSS | high polyreactivity
35 | QVQLVESGGGLVQAGGSLRLSCAASGFIFVYYTMGWYRQAPGNERELVAAISVSGGRTYYADSVKGRFTISRDNAKNTVYLQMNSLKPEDTAVYYCNARNGYGIGYWGQGTQVTVSS | high polyreactivity
36 | QVQLVDSGGGLVQASGSLRLSCAASGSIFLFYAMGGYRQAPGKERQVVAAITSGGRTYYADSVKGRFTISRDNAKNTVYLQMNSLKPEDTAVYYCNAVRFYSIGLGQDDYWGQGTQVTVSS | low polyreactivity
37 | QVQLVESGGGLVQAGGSLRLSCAASGSIFLSNMGWYRQAPGKERELVAAISRNGGSTYYADSVKGRFTISRDNAKYSVYLQMNSLKPEDTAVYYCAVQRYWGQGTQVTVSS | high polyreactivity
38 | QDQLVESGGCLVQAGGSLRLSCAASGGTFLYYAMGWYRQAPGKERELVAAISRGGSTHYADSVKGRFTISRDNAKNTVYLQMNSLKPEDTAVYYCAAVRSHRKRINFYDYWGQGTQVTVSS | low polyreactivity
39 | QVQLVESGGGLVQAGGSLRLSCAASGRIFEDYAMGWYRQAPGKERELVAAISSGGSTYADSVKGRFTISRDNAKNTVYLQMNSLKPEDTAVYYCAAYYRRSTYYYWGQGTQVTVSS | high polyreactivity
40 | QVHLVESGGGLVQAGGSLRLSSAASGITFDDYAMGWYRQAPGKERELVAAISVSGGDTYYADSVKGRFTISRDNAKNTVYLQMNSLKPEVTAVYYCAAEVVSPRWYDYWGQGTQLTVSS | low polyreactivity
41 | QVQLVESGGGLVQAGGSLRLSCASSGFIFVNYAMEWYRQAPGKERELVAAISRNGGRTYYADSVKGRFTISRDNAKNTVYFQMNSLKPEDTAVYYCTAELSGKRDYWGQGTQVTVSS | high polyreactivity
42 | QVQLVESGVGLVQAGGSLRLSCADSGLILSKYAKVWYRPAPGKEREFVAAITQTGSRTYYADSVKGRFTSSRDNAKNTVYLQMNSLKPEDTAVYYCNAVNYRSSRDSGYWGQGTQVTVSS | high polyreactivity
43 | QVQLVESGGGLVQAGGSLRLSCAASGSTFGRYAMGWYRQAPGKARELVAAITTSGGRTRYADSVKGRFTISRDNAKNTVYLQMNSLKPEDTAVYYCAASGAQGPDYDYWGQGTQVTVSS | low polyreactivity
